Variants at the floor of the assay were thinned out.
Columns and labels:
biotinyl-Phe-oxazolone = assay: self-aminoacylation, catalytic enhancement (BFO) (fold over background); higher = more active; k-Seq, kA / k0A0; sequences stand for … in GGGAAUGGAUCCACAUCUACGAAUUC…UUCACUGCAGACUUGACGAAGCUG
How it was run: (§1)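 Each biotinyl-aminoacyl-oxazolone, at 2–1250 μM, was incubated with mutagenized RNA pools (0.43 μM) carrying a 21-nt variable region. The 50 μL reactions contained HEPES/NaCl/KCl/MgCl2/CaCl2 buffer with 5% acetonitrile at pH 6.9–7.0 and ran for 90 minutes at room temperature. After streptavidin capture, RNA was measured by qPCR in triplicate and by Illumina sequencing, and catalytic enhancement was calculated as median kA over the uncatalyzed rate from a pseudo-first-order fit of per-sequence fraction reacted.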

biotinyl-Ile-oxazolone = assay: self-aminoacylation, catalytic enhancement (BIO) (fold over background); higher = more active; k-Seq, kA / k0A0; sequences stand for … in GGGAAUGGAUCCACAUCUACGAAUUC…UUCACUGCAGACUUGACGAAGCUG
How it was run: as §1

biotinyl-Met-oxazolone = assay: self-aminoacylation, catalytic enhancement (BMO) (fold over background); higher = more active; k-Seq, kA / k0A0; sequences stand for … in GGGAAUGGAUCCACAUCUACGAAUUC…UUCACUGCAGACUUGACGAAGCUG
How it was run: as §1

biotinyl-Val-oxazolone = assay: self-aminoacylation, catalytic enhancement (BVO) (fold over background); higher = more active; k-Seq, kA / k0A0; sequences stand for … in GGGAAUGGAUCCACAUCUACGAAUUC…UUCACUGCAGACUUGACGAAGCUG
How it was run: as §1

biotinyl-Leu-oxazolone = assay: self-aminoacylation, catalytic enhancement (BLO) (fold over background); higher = more active; k-Seq, kA / k0A0; sequences stand for … in GGGAAUGGAUCCACAUCUACGAAUUC…UUCACUGCAGACUUGACGAAGCUG
How it was run: as §1

biotinyl-Trp-oxazolone = assay: self-aminoacylation, catalytic enhancement (BWO) (fold over background); higher = more active; k-Seq, kA / k0A0; sequences stand for … in GGGAAUGGAUCCACAUCUACGAAUUC…UUCACUGCAGACUUGACGAAGCUG
How it was run: as §1

Sequence	self-aminoacylation (biotinyl-Phe-oxazolone)	self-aminoacylation (biotinyl-Ile-oxazolone)	self-aminoacylation (biotinyl-Met-oxazolone)	self-aminoacylation (biotinyl-Val-oxazolone)	self-aminoacylation (biotinyl-Leu-oxazolone)	self-aminoacylation (biotinyl-Trp-oxazolone)
UAGGUUGCUAAUAGUCGCAAG [Fam3.1 aminoacylation ribozyme variant]	1.91	1.4	1.2	1.2	1.15	2.01
CUACUGCAAACAAUCCGUCUG [Fam1A.1 aminoacylation ribozyme variant]	1.27	0.953	0.806	0.801	0.817	0.876
AAGUUCGCUAAUAGUGGCAAG [Fam3.1 aminoacylation ribozyme variant]	0.484	0.737	0.601	0.56	0.8	0.444
AAGUUUGAUAAGAGUCGCAAG [Fam3.1 aminoacylation ribozyme variant]	1.67	1.62	1.06	1.12	1.24	1.33
CCAAACUUCAAGCAAUUGGUC [Fam1B.1 aminoacylation ribozyme variant]	1.1	0.759	0.81	0.828	0.767	0.886
AUUACCCUGGUAAUCAAGUGA [Fam2.1 aminoacylation ribozyme variant]	16.1	1.71	3.27	1.73	3.14	3.48
AUUAUCCUGGUAAUCGAGUGA [Fam2.1 aminoacylation ribozyme variant]	96.5	5.94	13.3	5.97	14.5	16.5
AUUCACCGAGGUCAUCGCGUG [Fam2.2 aminoacylation ribozyme variant]	117	7.64	16	9.71	19.1	14.8
UUACCUCAAACAAUCGGUCUG [Fam1A.1 aminoacylation ribozyme variant]	3.03	0.975	0.97	1.01	0.861	2.66
AUUCACCUGGGUGAUCGGGUG [Fam2.2 aminoacylation ribozyme variant]	24.1	3.9	4.39	4.45	4.89	6.7
AAGUUUGCUAAUAGUACCAAG [Fam3.1 aminoacylation ribozyme variant]	1.41	1.14	1.22	1.15	0.791	0.838
AUUACCGUGGUCAUCGAGUGG [Fam2.1 aminoacylation ribozyme variant]	7.04	1.27	1.85	1.33	1.81	1.72
CUACAUCAAACAAUCGCUCUG [Fam1A.1 aminoacylation ribozyme variant]	0.457	0.803	0.777	0.878	0.89	0.67
AUUCACCUAAGUCUUCGGGUG [Fam2.2 aminoacylation ribozyme variant]	33.4	3.49	4.98	3.85	6.66	5.42
AUUCACCUAGGUCAUAGGUUG [Fam2.2 aminoacylation ribozyme variant]	0.595	0.63	0.846	0.77	0.9	0.441
AAGUGUGCUAAUAGUCGCACG [Fam3.1 aminoacylation ribozyme variant]	2.38	1.19	1.6	1.04	1.5	2.16
CCACCCUUCAAGGAAUCGGUC [Fam1B.1 aminoacylation ribozyme variant]	3.31	1.36	1.34	1.32	1.27	4
AUUACCCCGGUCAUCGCGUGA [Fam2.1 aminoacylation ribozyme variant]	174	11.2	23.7	11.8	24.3	23.8
AGGCACCUAGGUCAUCGGGUG [Fam2.2 aminoacylation ribozyme variant]	17	2.94	3.14	3.73	3.18	4.1
AAGGUUGCUAAUAGGCGCAAG [Fam3.1 aminoacylation ribozyme variant]	1.11	1.19	0.729	0.796	1.17	1.17
AUUACCGUCGUCAUCGAGUGA [Fam2.1 aminoacylation ribozyme variant]	8.91	2.36	3.23	2.3	3.42	3.88
CUACUUCAAACAAUCUGGCUG [Fam1A.1 aminoacylation ribozyme variant]	0.69	0.963	0.844	0.963	1.02	0.664
AAGUUUGCUAAUAAUCGCAAG [Fam3.1 aminoacylation ribozyme variant]	1.6	0.735	0.637	0.746	0.602	0.876
AUCACCCUGGUCAUCGUGUGA [Fam2.1 aminoacylation ribozyme variant]	34.7	1.81	3.98	2.31	5.08	4.97
AUGUUUGCUAAUCGUCGCAAG [Fam3.1 aminoacylation ribozyme variant]	1.59	1.32	1.13	1.44	1.32	1.01
AUUUACCUAGGUCAUCGUGUG [Fam2.2 aminoacylation ribozyme variant]	1.75	0.874	0.995	0.953	1.18	0.691

Sequence	self-aminoacylation (biotinyl-Phe-oxazolone)	self-aminoacylation (biotinyl-Ile-oxazolone)	self-aminoacylation (biotinyl-Met-oxazolone)	self-aminoacylation (biotinyl-Val-oxazolone)	self-aminoacylation (biotinyl-Leu-oxazolone)	self-aminoacylation (biotinyl-Trp-oxazolone)
UAGUUUGCUAAAAGUCGCAAG [Fam3.1 aminoacylation ribozyme variant]	3.92	1.53	1.93	1.6	1.57	3.43
AUCACCCUGGUCAUCGAGUGU [Fam2.1 aminoacylation ribozyme variant]	94.9	7.23	22.5	8.64	21.5	20.2
AAGUUUGCUAAUAGACGCAAG [Fam3.1 aminoacylation ribozyme variant]	0.87	0.526	0.477	0.587	0.459	0.574
AAUACACUGGUCAUCGAGUGA [Fam2.1 aminoacylation ribozyme variant]	8.92	3.65	4.13	3.4	4.56	6.47
AUUUACCUAGGUCAUCGAGUG [Fam2.2 aminoacylation ribozyme variant]	18.5	6.62	9.76	5.4	12.7	5.73
GCGUUUGCUAAUAGUCGCAAG [Fam3.1 aminoacylation ribozyme variant]	4.9	2.09	2.34	2.05	2.65	4.24
AGUCACCUAGGUCAUCGGGUC [Fam2.2 aminoacylation ribozyme variant]	4.41	1.46	2.13	1.7	1.82	1.69
AAUUUUGCUAAUAGUCGCAAA [Fam3.1 aminoacylation ribozyme variant]	2.06	3	3.1	2.15	2.22	2.42
AUUACCCUGAUCGUCGAGUGA [Fam2.1 aminoacylation ribozyme variant]	0.434	0.89	0.75	0.862	0.865	0.86
AUUCACAUAGGGCAUCGGGUG [Fam2.2 aminoacylation ribozyme variant]	20.9	3.83	4.4	3.39	3.62	4.52
AUUCACCUAGGUCCUCGAGUG [Fam2.2 aminoacylation ribozyme variant]	3.5	1.26	1.36	1.38	2.12	1.18
AUGCACCUAUGUCAUCGGGUG [Fam2.2 aminoacylation ribozyme variant]	26.4	2.81	4.11	2.48	5.19	4.24
AUUCUGCUAGGUCAUCGGGUG [Fam2.2 aminoacylation ribozyme variant]	72.1	5.96	9.46	6.13	12	9.84
AUUACCCUGAUUAUCGAGUGA [Fam2.1 aminoacylation ribozyme variant]	117	7.51	17.9	7.28	17.4	22
CCACUCUUCAAGUAAUCGGUC [Fam1B.1 aminoacylation ribozyme variant]	4.71	0.854	0.823	1.08	0.969	3.88
CCACACCUCAAGCAAGCGGUC [Fam1B.1 aminoacylation ribozyme variant]	1.27	1.34	1.02	1.21	0.921	1.32
CCACACUACAAGCAAUGGGUC [Fam1B.1 aminoacylation ribozyme variant]	0.762	0.72	0.778	0.842	0.511	0.735
CCACACUUCAAGCACCCGGUC [Fam1B.1 aminoacylation ribozyme variant]	0.709	1.55	1.74	1.75	1.64	2.07
AUUCAGCUAGGUCAUCGGGUA [Fam2.2 aminoacylation ribozyme variant]	29.7	3.18	3.6	3.3	3.67	2.76
AUUUUUGCUAAUAGUCGCAAG [Fam3.1 aminoacylation ribozyme variant]	1.71	1.37	1.07	1.02	0.994	1.02
AUUCACCUAGGUCAUGGGGUU [Fam2.2 aminoacylation ribozyme variant]	0.983	1.5	1.68	1.58	1.52	1.51
ACUACCCUGGUCAUCGAGUUA [Fam2.1 aminoacylation ribozyme variant]	8.46	2.05	5.07	2.38	5.11	3.55
AUUUACCUAGGUCCUCGGGUG [Fam2.2 aminoacylation ribozyme variant]	28.6	3.33	4.15	3.3	6.13	4.31
AUUACCCUGGUCAUCCAGGGA [Fam2.1 aminoacylation ribozyme variant]	7.32	1.91	2.82	1.67	1.84	2.26
CAGUGUGCUAAUAGUCGCAAG [Fam3.1 aminoacylation ribozyme variant]	1.76	1.51	1.58	1.46	1.46	1.59

Source: the supplement of paper PMC9233669
